Reference: US20040210041A1 (published 2004)
Positions of bridges follow the written chain, without caps; N, C: chain ends.

Legend:
[1] = molecular target: T1, KDR (VEGFR-2), full-length receptor on cells (human, UniProt P35968 20-1356); assay: competition with 300 pM 125I-VEGF on KDR-transfected 293H cells; peptide 0.3 µM
T1 construct: whole, on cells; also called KDR-expressing cells
Procedure: (§1) Cells were used 24 h after transfection, and to prepare the cells for the assay, they were washed 3 times with room temperature Ml 99 medium and placed in the refrigerator. […] Each dilution was added to three separate wells of mock and KDR transfected cells. Aflter incubating at 4° C. for 2 h, the plates were washed 5 times with cold binding buffer, gently blotted dry and checked under a microscope for cell loss. 100 μL of solubilizing solution (2% Triton X-100, 10% Glycerol, 0.1% BSA) was added to each well and the plates were incubated at room temperature for 30 minutes. The solubilizing solution in each well was mixed by pipeting up and down, and transferred to 1.2 mL tubes. Each well was washed twice with 100 μL of solubilizing solution and the washes were added to the corresponding 1.2 mL tube.

[2] = molecular target: T1, KDR (VEGFR-2), full-length receptor on …; assay: competition with 300 pM 125I-VEGF on KDR-transfected 293H cells; peptide 30 µM
Procedure: as §1

[3] = molecular target: T1, KDR (VEGFR-2), full-length receptor on …; assay: cell-based or functional assay

T1 sequence (P35968 20-1356): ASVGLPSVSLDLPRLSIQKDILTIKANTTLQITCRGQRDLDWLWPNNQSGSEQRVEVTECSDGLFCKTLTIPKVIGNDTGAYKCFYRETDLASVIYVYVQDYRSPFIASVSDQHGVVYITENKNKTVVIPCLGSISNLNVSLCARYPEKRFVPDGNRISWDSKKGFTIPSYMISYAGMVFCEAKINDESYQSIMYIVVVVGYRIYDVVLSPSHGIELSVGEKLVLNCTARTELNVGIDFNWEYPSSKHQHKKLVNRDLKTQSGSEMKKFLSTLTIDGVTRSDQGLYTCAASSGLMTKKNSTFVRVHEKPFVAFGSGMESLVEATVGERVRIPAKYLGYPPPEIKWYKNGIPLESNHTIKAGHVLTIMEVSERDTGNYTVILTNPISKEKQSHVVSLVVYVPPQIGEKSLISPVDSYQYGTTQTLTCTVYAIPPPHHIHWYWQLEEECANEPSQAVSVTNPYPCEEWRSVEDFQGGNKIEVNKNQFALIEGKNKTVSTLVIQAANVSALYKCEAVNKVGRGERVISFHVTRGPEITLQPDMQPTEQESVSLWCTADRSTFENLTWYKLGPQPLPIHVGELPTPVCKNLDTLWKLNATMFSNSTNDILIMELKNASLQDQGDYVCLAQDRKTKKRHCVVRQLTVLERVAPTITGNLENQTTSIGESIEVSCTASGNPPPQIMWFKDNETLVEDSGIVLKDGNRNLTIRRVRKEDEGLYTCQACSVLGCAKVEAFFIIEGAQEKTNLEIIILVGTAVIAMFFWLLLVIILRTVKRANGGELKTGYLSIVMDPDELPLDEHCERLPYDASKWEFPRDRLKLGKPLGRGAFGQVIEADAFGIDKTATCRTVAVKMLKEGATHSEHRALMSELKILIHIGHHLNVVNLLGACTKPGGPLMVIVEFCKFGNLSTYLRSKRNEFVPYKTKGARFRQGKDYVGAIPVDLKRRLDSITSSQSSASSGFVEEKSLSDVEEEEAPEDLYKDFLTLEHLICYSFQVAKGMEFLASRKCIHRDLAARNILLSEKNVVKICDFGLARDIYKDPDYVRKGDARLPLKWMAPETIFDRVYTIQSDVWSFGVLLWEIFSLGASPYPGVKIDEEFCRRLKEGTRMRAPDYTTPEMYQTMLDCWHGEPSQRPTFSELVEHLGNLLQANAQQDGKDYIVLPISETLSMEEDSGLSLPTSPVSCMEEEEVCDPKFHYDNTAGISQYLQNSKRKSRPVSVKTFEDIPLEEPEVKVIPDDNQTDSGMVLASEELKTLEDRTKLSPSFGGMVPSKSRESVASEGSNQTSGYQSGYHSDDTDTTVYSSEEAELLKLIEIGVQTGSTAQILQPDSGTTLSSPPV

Binder | % inhibition of 125I-labeled VEGF binding [1] [%] | % inhibition of 125I-labeled VEGF binding [2] [%] | IC50, receptor activation assay [3] [nM] | inhibition of VEGF-induced KDR phosphorylation [3] [% inhibition at 10 µM]
Ac-GDSRVCWEDSWGGEVCFRYDPGGGK-NH2 (disulfide 6-16 (inferred)) [P6-D] | 52.3 | 96.3 | 1000 | ≥ 50
Ac-AGWIECYHPDGICYHFGTGGGK-NH2 (disulfide 6-13 (inferred)) [P2-D] | – | – | – | ≥ 50
